This passage reports Kd results from publication doi:10.1101/2024.01.20.576400 (bioRxiv, 2024).

The term Kd denotes the constant that tells how readily two partners part at equilibrium. A lower Kd goes with a tighter complex.

Experiment [1] deals with Pwl2-2 (Magnaporthe oryzae). Description: ITC. On the technique in general: ITC needs no label: the signal is the heat of the interaction.
Experiment [2] has as its target Pwl2-3 (Magnaporthe oryzae). Description: ITC.

As to “HMA domain of OsHIPP43 (residues 26-101) (from UniProt Q8LJL3 26-101) (domain or fragment)”, the Kd in experiment [1] came to 141 nM; in experiment [2] it was 35 nM.
